# Assay results from publication PMC7907208, “Aptamer-targeting of Aleutian mink disease virus (AMDV) can be an effective strategy to inhibit virus replication”.
# B1: ADVa001 (ssDNA)
# DNA: AGCAGCACAGAGGTCAGATGGTGTGTGTGTGTGTGTGTGTGCCTATGCGTGCTACCGTGACCTATGCGTGCTACCGTGAA
# B2: ADVa014 (ssDNA)
# DNA: AGCAGCACAGAGGTCAGATGTGTTGTCCCGGGGCCCTATGCGTGCTACCGTGAATAGCGTCCTATGCGTGCTACCGTGAA
# B3: ADVa012 (ssDNA)
# DNA: AGCAGCACAGAGGTCAGATGAGCTAGTGCCTATGCGTGCTACCGTGAATAGCGTCAGCAGCCTATGCGTGCTACCGTGAA
# B4: ADVa011 (ssDNA)
# DNA: AGCAGCACAGAGGTCAGATGGGGTTGTCGGTGTTTGCGGGCCTATGCGTGCTACCGTGAACCTATGCGTGCTACCGTGAA
# Target: AMDV VP2 (Aleutian mink disease virus, UniProt A0A168PAM8 200-588)
# Assay: ELONA
# Settings: protein: recombinant; tags: His
row,Binder,Kd [nM]
1,B1,566 ± 127
2,B2,247 ± 62.5
3,B3,930 ± 285
4,B4,2090 ± 754
